We go through 41 sequences from the nanobody polyreactivity screen of Harvey et al. (2022).

This data set is described as follows: yeast display, Sf9 membrane polyspecificity reagent, FACS + sequencing; frameworks hold sequencing errors. In a few lines:
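Nanobodies from a synthetic yeast display library (Saccharomyces cerevisiae BJ5465), induced 36–48 hours with galactose, were stained 1 hour at 4 °C with 10% biotinylated, detergent-solubilized Sf9 membrane reagent, enriched on streptavidin microbeads, then FACS-sorted. Anti-HA (expression) and streptavidin (reagent binding) fluorescence set low and high (top ~1%) gates. Polyreactivity labels come from the gate of origin. Genes were colony-PCR amplified, MiSeq 2 × 250 sequenced and filtered by CDR length.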
Turning to “QVQLVESGGGLVQAGGSLRLSCAASGSIFDSNAKGWYRQAPGKERELVAAITGSGSTNYADSVKGRFTFSRDNAKNTVYLQMNSLKPEDTAVYYCNAQAPYTEFDYWGQGTQVTVSS”, the “polyreactivity (PSR sort gate)” value was “low polyreactivity”.

Turning to “QVQLVESGGGLVQAGGSLRLSCAASGRTFAGYAMGWYRQAPGKERELVAAITNGGSTKYADSVKGRFTISRDNAKNTVYLQMNSLKPEDTAVYYCNARKRFYSGNTLMYYWGQGTQVTLSS”, the “polyreactivity (PSR sort gate)” value was “high polyreactivity”.

Regarding “QVQLVESGGDLVQAGGSLRLSCAASGRTFSANGMGWYRQAPGKERELVAAITRSGGITYYADSVKGRFTISRDNAKNTVYLQMNSLKPEDTAVYYCAASVYSLSRRSWMDYWGQGTQVTVSS”, the “polyreactivity (PSR sort gate)” value was “low polyreactivity”.

Turning to “QVQLVESGGGLVQAGGSLRLSCAASGSTFDVYAMGWYRQAPGKERELVAGISSRGGRTYYADSVKGRFTISRDNAKNTVYLQMNSLKPEDTAVYYCAARYKGNPDRYGYWGQGTQVTVSS”, the “polyreactivity (PSR sort gate)” value is given as “high polyreactivity”.

“QVQLVESGGGLVQAGGSLRLSCAASGFIFYQYAMGWYRQAPGKERELVAAISWGGGSTYYADSVKGRFTISRDNAKNTVYLQMNSLKPEDTAVYYCAATGLGWHSYHEYDYWGQGTQVTVSS”: the “polyreactivity (PSR sort gate)” value is on record as “low polyreactivity”.

As to “QDQLVESGGGLVQAGGRLRLSCAASGSTFLRYAMGWYRQAPGKERELVAAINLSGDRTYYADSVKGRFTISRDKAKNTFYLQMHSLKPEDTAVYYCAARWWGPSYDAYDYWGQGTQVTVSS”, the “polyreactivity (PSR sort gate)” value was “low polyreactivity”.

In the case of “QVQLVESGGGLVQAGGRLRLSCAASGLTLRWYAMGWYRQAPGKERELVAVISGSGSTNYADSVKGRFTISRDNAKNTVYLQMNSLKPEDTAVYYCAAQSHLGTPQRFGYWGQGTQVTVSS”, the “polyreactivity (PSR sort gate)” value was “low polyreactivity”.

Take “QVQLVESGGGLVQAGGSLRLSCAASGRTFYSYAMGWYRQAPGKERELVASISYGGGTNYADSVKGRFTISRDNAKNTVYLQMNSLKPEDTAVYYCAAKYWFFYPYDYWGQGTQVTVSS”: the “polyreactivity (PSR sort gate)” value is “low polyreactivity”.

For the sequence “QVQLVESGGGLVQAGGSLRLSCSASGSIFGIYTMGWYRQAPGKERELVAAINSGGSTNYADSVKGRFTISRDNAKNTVYLQMNSLKPEDTAVYYCAAGGSSSWAFNYWGQGTQVTVSS”, the “polyreactivity (PSR sort gate)” value was “low polyreactivity”.

With “PVQLVESGGGLVQAGGSLRLSCAASGSTFLYSAMGWYRQAPGKERELVAGISAAGGSSYYADAVKGRFTISRDNAKNTVYIQMNSLKPEDTAVYYCNATRVVIRHSYDYWGQGTQVTVSS”, the “polyreactivity (PSR sort gate)” value was “high polyreactivity”.

Regarding “QVQLVESGGGLVQAGGSLRLSCAASGRIFPYYTMGWYRQAPGKERELVAAISSSGGSTYYADSVKGRFTISRDNAKNTVYLQMNSLKPEDTAVYYCNIRRHSLYGGTTTRYDYWGQGTQVTVSS”, the “polyreactivity (PSR sort gate)” value is recorded as “high polyreactivity”.

Regarding “QVQLVESGGGLVQAGGSLRLSCADSGSTFNIYAMGWYRQAPGKERELVAAISSGGTTYYADSVKGRFTISRDNAKNTVYLQMNSLKPEDTAVYYCAALTSSLPAYGYWGQGTQVTVSS”, the “polyreactivity (PSR sort gate)” value is listed as “low polyreactivity”.

Regarding “QVQLVESGGGLVQAGGSLRLSCAASGLTFGYYAMGWYRQAPGKERELVAVISGGGGTHYADSVKGRFTISRDNAKNTVYLQMNSLKPEDTAVYYCAAYTYRRYDYWGQGTQVTVSS”, the “polyreactivity (PSR sort gate)” value is reported as “high polyreactivity”.

As for “QVQLVESGGGLVQAGGSLRLSCAASGRTFGEYAMGWYRQAPGKERELVAAISSAGSTYYADSVKGRFTISRDNAKNTVYLQMNSMKPDDTAVYYCASSRKYGYGYWGQRTQVTVSS”, the “polyreactivity (PSR sort gate)” value is “high polyreactivity”.

Regarding “QVQLVESGGGLVQAGGSLRLSCAASGFIFAYNAMGWYRQAPGKERELVASIRTRGGSTYYADSVKGRFTISRDNAKNTVYLQMNSLKPEDTAVYYCAARPFPRRYDYWGQGTQVTVSS”, the “polyreactivity (PSR sort gate)” value was “low polyreactivity”.

On to “QVQLVESVGGLVQAGGSLRLTCAASGFTFDKYAMGWYRQAPGKERELVAAISNSGGRTYYADSVKGRFTISRDNAKNTVYLQMNSLKPEDTAVYYCAAVALTRRYDYWGQGTQVTVSS”, for which the “polyreactivity (PSR sort gate)” value is “high polyreactivity”.

As for “QVQLVESGGGLVQARGSLRLSCPASGITFARYAMEWSRQAPGKERELVAAISYGGGSTYYADSVKGRFTISRDNAKNTVYLQMNSLKPEDTSVYYCNNVPRKSYGYWGQGTQVTVSS”, the “polyreactivity (PSR sort gate)” value was “high polyreactivity”.

As for “QVQLVESGGGLVQAGGSLRLSCAASGRTFIYNAMGWYRQAPGKERELVAAISTSGGRTYYADSVKGRFTISRDNAKNTVYLQMNSLKPEDTAVYYCNAVRSYRMDYWGQGTQVTVSS”, the “polyreactivity (PSR sort gate)” value is “high polyreactivity”.

For “QVQLVESGGGLVHAGGSLRLSCAASGITSPYSMGWYRQSPGKERELVAAISSGASTYYADTVKGRFTISRDNAKNTVYLQMNSLKPEVTAVYYCNRVTKRYPNIGNYWGQGTQVTLSS”, the “polyreactivity (PSR sort gate)” value is on record as “high polyreactivity”.

“PVQLVESGGGLVQAGGSLRLSCAASGSIFTAYDMGWYRQAPGKERELVAAINVSAGTTYYADSVKGRFTISRDNAKKTVYLQMISLIPEDTAVYYCAARDISLNAVGLPKEYNRDYWGQGTQVTVSS”: the “polyreactivity (PSR sort gate)” value is “low polyreactivity”.

With “QVQLEESGGGLVQAGGSLRLSSAASGRTLVHYAIGSYRQAPGKEREMVAAISIGGDSTYADSVKGRFTISRDNAKNTVYLQMNSLKPEDTAVYYCAASGWWDFFDPYFKFDYWGQGTQVTVSS”, the “polyreactivity (PSR sort gate)” value is reported as “low polyreactivity”.

In the case of “QVQLVESGGGLVQAGGSLRLSCAASGFTFAGYAMGWYRQAPGKERELVAGIRSSGARTYYADSVKGRFTISRDNAKNTVYLQMNSLKPEDTAVYYCAKTDGFYRGYGYWGQGTQVTVSS”, the “polyreactivity (PSR sort gate)” value is reported as “low polyreactivity”.

In the case of “QVQLVESGGGLVQAGGSLRLSCAASGLNFSEYAMGWYRQAPGKERELVAAIRSDGGSTYYADSVKGRFTISRDNAKNTVYLQMNSLKPEVTAVYYCNAPYRRSAKFRRYVYDYWGQGTQVTVSS”, the “polyreactivity (PSR sort gate)” value is reported as “high polyreactivity”.

As to “QVKLVESGGGLVQAGGSLRLSCAASGFIFSKNAMGWYRQAPGKERELVAAISGRGGTTYYADSVKGRFTISRDNAKNTVYLQMNSLIPEDTAVYYCATDNSSHPYDYWGQGTQVTVSS”, the “polyreactivity (PSR sort gate)” value is listed as “high polyreactivity”.

For “QVQLVESGGGLVQAGGSLRLSCAASGLTFKRYAMGWYRQAPGKERELVASITGNGGSTYYADSVKGRFTISRDNAKNTVYLQMNSLKPEDTAVYYCNARRYVRTSQQPLYDYWGQGTQVTVSS”, the “polyreactivity (PSR sort gate)” value was “high polyreactivity”.

As to “QVQLVESGGGLVQAGGSLRLSCAASGFISPPYAMGWYRQAPGKERELVAAIRSSGGSTYYADSVKGRFTISRDNPKNTVYLQMNSLKPEDTAVYYCNADWIYISSYGWYSYDYWGQGTQVTVSS”, the “polyreactivity (PSR sort gate)” value was “high polyreactivity”.

With “QVQLVESGGGLVQAGGSLRLSCAASGFIFRYYTMGWYRQAPGKERELVASISRRGGSTYYADSVKGRFTISRDNAKNIVYVQMNSLKEVDTAVYYCNADRRLGDGYWGQGTQVTVSS”, the “polyreactivity (PSR sort gate)” value is on record as “high polyreactivity”.

As to “QVQLVESGGGLVQAGGSLRLSCAASGGTFPLYAMGWYRQAPGKARELVAAIRWSGGRTYYADSVKGRFTISRDNAMKTVYLQMNSLKPEDTAVYYCAADYDDGWGYDYWGQGTQVTVSS”, the “polyreactivity (PSR sort gate)” value is on record as “high polyreactivity”.

With “QVQLVESGGGLVQAGGSLRLSCAASGSIIYYYAMGWYRQAPGKERELVASITRGGSTYYADSVKGRFTISRDNAKNTVYLQMNSLKPEDTAVYYCNADLGAYVPYDYWGQGTQVTVSS”, the “polyreactivity (PSR sort gate)” value was “high polyreactivity”.

In the case of “QVQLVESGGGLVQAGGSLRLSCAASGRIFYYNAMGWYRQAPGKERELVAAISWDGGSTYYADSVKGRFTISRDNAKNTVYLQMNSLKAEDTAVYYCAVDLYGTWYPTWFNYWGQGTQVTVSS”, the “polyreactivity (PSR sort gate)” value was “low polyreactivity”.

For “QVQLVESGGGLVQAGGSLRLSCAASGITLYNYAMGWYRQAPGKERELVAAISLSGGRTYYADSVKGRFTISRDNAKNTVYLQMNSLKPEDTAVYYCAAETDFVWSAPQLAYKVYYWGQGTQVTVSS”, the “polyreactivity (PSR sort gate)” value is reported as “low polyreactivity”.

Regarding “QVQLVESGGGLVQAGGSLRLSCAASGFIFWEYAMGWYRQAPGKERELVAAISTSGGSTYYADSVKGRFTISRDNAKNTVYLQMISLKPEDTAVYYCAVDGWDDTYFRQDMDYWGQGTQVTVSS”, the “polyreactivity (PSR sort gate)” value is “low polyreactivity”.

As for “QVQLVESGGGLVQAGGSLRLSCAATGITFYTYAMGWYRQAPGKERELVAAITRSGGSTYYADSVKGRFTISRDNAKNTVYLQMNSLKPEDTAVYYCAADGGYIYWEHLYYSGSDYWGQGTQVTVSS”, the “polyreactivity (PSR sort gate)” value is reported as “low polyreactivity”.

As to “QVQLVESGGGLVQAGGSLRLICAASGSIFAYYAMGWYRQAPGKERELVGTNYADSVKGRFTISRDNAKNTVYLQMNSLKPEDTAVYYCAASSRRYLWGFDYWGQGTQVTVSS”, the “polyreactivity (PSR sort gate)” value is “low polyreactivity”.

As to “QVQLVESGGGLVQAGGSLRLSCAASGRTFGYNAMGWYRQAPGKERELVASISYSGGSTYYADSVKGRFTISRDTAKNTVYLQMNSLKPEDTAVYYCSAKYWYWQSPSKYYYWGQGTQVTVSS”, the “polyreactivity (PSR sort gate)” value is “high polyreactivity”.

For the sequence “QVQLVESWGGLDQAGGSLRLSCAASGRILRTYAMGWYRQAPGKERELVAAITWSGGSTYYADSVKGRFTISRDNAKNTVYLQMNSLKPEDTAVYDCNALTPGYRIYDYWGQGTQVTVSS”, the “polyreactivity (PSR sort gate)” value is given as “high polyreactivity”.

Regarding “QVQLQESGDGLVQAVGSLRLSCAARGYISGYYYMGWYRQAPGKERELVAGIDAFGSSTNYADCVKGRFTISRDNAKNTVYLQMNSLKPEDTAVYYCAARPDGDRLFSYWGQGTQVTVSS”, the “polyreactivity (PSR sort gate)” value is “low polyreactivity”.

On to “QVQLVESGGGLVQAGGSLRLSCAASGSTFAANAMGWYRQAPGKERELVAAITSSGGSTYYADSVKGRFTISLDNEKNTVYLQMNSLKPEDTAVYYCNKDIERYVRIYDSWGQGTQVTVSS”, for which the “polyreactivity (PSR sort gate)” value was “low polyreactivity”.

Take “QVQLLESGCGLVQAGGSLSIRCAATGFIFIFIAMGWSRQATGTERELVAAIDTSDDSTYYADSVMGRFTISRDNAKNTVYLQMNRLKTEDTAVYYCAAEELSNYEYWGQGTQVTVSS”: the “polyreactivity (PSR sort gate)” value is “low polyreactivity”.

On to “QVQLVESGGGLVQAGGSLRLSCAASGSIFLVNAMGWYRQAPGKVRELVAAITYGGDSTYYADSVKGRFTISRDHAQNTVYLQMNSLKPEDTAVYYCAADAWVGWHDEYDYWGQGTQVTVSA”, for which the “polyreactivity (PSR sort gate)” value is reported as “low polyreactivity”.

In the case of “QVQHVESGGGLVQAGGSLRLSCAASGRTFTYNAMGWYRQAPGKERELVAAISWNGGRTYYADSVKGRFTISRDNAKNTVYLEMNSLKPEETAVYYCNAVSYNLAAYDYWGQGTQVTVSS”, the “polyreactivity (PSR sort gate)” value was “high polyreactivity”.
